The text below walks through data of patent US20250215467A1, “L-THREONINE TRANSALDOLASES AND USES THEREOF” (University of Delaware, priority 2022, published 2025).

This series is described as follows: TTA-ADH coupled assay at different L-Thr concentrations (apparent L-Thr KM and kcat). The series is classed as biochemical. The protocol: High-throughput screening of purified TTAs was performed with a TTA-ADH coupled assay using purified TTA and commercially available alcohol dehydrogenase from S. cerevisiae purchased from MilliporeSigma. Aldehyde stocks were prepared in 50-100 mM solutions in DMSO or acetonitrile. Reaction mixtures were prepared in a 96-well plate with 100 μL of 100 mM phosphate buffer pH 7.5, 0.5 mM NADH, 0.4 mM PLP, 15 mM MgCl2, and 100 mM L-Thr with the addition of 0.25 mM to 1 mM aldehyde depending on the background absorbance at 340 nm (Table 4), 10 U ScADH, and 0.25 μM purified TTA unless otherwise specified. Reactions were initiated with the addition of enzyme. […] The following controls were included for every assay: reaction mixture without aldehyde, without TTA, and without enzyme (TTA or ADH). Rates were calculated by identifying the linear region at the beginning of the kinetic run and converting the depletion in absorbance to the depletion of mM NADH using an NADH standard curve.
We next sought to determine the affinity of these enzymes for L-Thr, which we obtained by performing the TTA-ADH coupled assay at different L-Thr concentrations (FIG. 16b). […] Two differences between our assays were the substrate, phenylacetaldehyde (14) instead of 4-nitrophenylacetylaldehyde (15), and the assay format, ADH coupling rather than a discontinuous HPLC assay. Because a live cellular environment would also contain alcohol dehydrogenases for reduction of acetaldehyde, it is possible that the KM values that we are measuring using the TTA-ADH coupled assay may be more realistic for our envisioned applications.

B1: PbTTA: L-threonine transaldolase, SEQ ID NO: 16, Parachlamydiales bacterium, MBN2478762.1 (protein, listed as Parachlamydiales bacterium)
chain: METSLKDFETILHLINKEEIDSNDTIHMTANENIMSKLSKHYLKSTLSYRYHVGMFDDQKNLTVSRSCLIKNSLMLRCLSPIFLLEQQAREYVKKMFFAEYADFRPLSGMHTVFCILSTLTKPNDRVYVFTTESVGHAATVSLLKSLGRKVSFIPFCEKKLDIDLEKLSKQILIEKPNAILFDFGTPFYPLPIREIREIVGNDVKMIYDASHVLGLIAGGQFQNPLLEGCDVLIGNTHKTFPGPQKGMILYKNKSLGKEIATEIFKSAISAQHTHHAIALYVTIIEMYIHGKEYANQIIKNNHALSQALINEGFKIFKRKNQFSLSHMIAITGDFPIDHHVACADLHNSNISTNSRILYDFPAVRIGVQEVTRKGMKEKDMVQLAKFFKEIILDRKNISSKIKEFNNKFNSIEYSLDEIYEKLF
With B1, the Km (commonly the concentration of substrate that gives half-maximal velocity) (apparent, phenylacetaldehyde (14) as aldehyde, ADH coupling, non-linear regression) stood at 10.9 mM. Moreover, the “L-Thr kcat compared with ObiH” value (phenylacetaldehyde as the aldehyde substrate) is reported as “higher measured L-Thr kcat values than ObiH”.
